Paper PMC6516834

Key:
[1] = target: end-labeled Ndc80 complex Nuf2 S2C Spc25 S154C (cysteine-light, concurrently labeled with Cy3 and Alexa Fluor 647, for single molecule FRET) (S. cerevisiae) (UniProt P40460); experiment: single molecule three-color TIRF co-localisation; end-labeled Ndc80 complex and GFP-MIND pre-incubated 1:10 for 15 min at room temperature, then tethered by anti-penta-His antibody to lipid-coated coverslips; co-localisation of GFP with Cy3 and Alexa Fluor 647
[2] = target: taxol-stabilized microtubules (bovine brain tubulin) (bovine) (UniProt Q6B856); experiment: single molecule TIRF microscopy (residence time on microtubules); fluorescent complexes in solution on taxol-stabilized microtubules; standard BRB80 buffer; mean residence time, error by bootstrapping
[3] = target: Ndc80-MIND-GFP co-complex (S. cerevisiae) (UniProt P40460); experiment: single molecule TIRF microscopy (residence time on microtubules); as a1, with free Spc24/Spc25 dimer (wild type or mutant) added in trans: sixtyfold excess over Broccoli-GFP, tenfold excess over Ndc80-MIND-GFP

Sequence of free Spc24/Spc25 dimer (Q04477 whole entry): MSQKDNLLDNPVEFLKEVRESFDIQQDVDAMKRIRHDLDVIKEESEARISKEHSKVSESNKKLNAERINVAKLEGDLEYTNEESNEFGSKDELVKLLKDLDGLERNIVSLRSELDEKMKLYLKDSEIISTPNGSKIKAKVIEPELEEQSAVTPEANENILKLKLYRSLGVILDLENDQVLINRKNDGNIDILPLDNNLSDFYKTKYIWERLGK
Sequence of free Spc24/Spc25 dimer (P40014 whole entry): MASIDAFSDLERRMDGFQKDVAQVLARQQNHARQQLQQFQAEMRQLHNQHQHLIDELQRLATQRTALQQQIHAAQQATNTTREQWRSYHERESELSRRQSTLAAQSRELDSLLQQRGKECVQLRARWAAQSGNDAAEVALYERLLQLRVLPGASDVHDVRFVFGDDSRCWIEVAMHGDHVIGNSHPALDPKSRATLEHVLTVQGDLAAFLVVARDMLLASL

Substance	mean residence time of the Ndc80-MIND-GFP co-complex on microtubules with a tenfold excess of the binder [3] [s]	also measured
MIND complex carrying an N-terminal FLAG tag on Nsl1 and a C-terminal GFP on Mtw1 (from UniProt P39731 1-289; Q12143 1-216; P40568 1-576)	–	percent of the end-labeled Ndc80 complexes in co-complex with MIND (tenfold excess of GFP-MIND) [1]: 33%
Ndc80-MIND-GFP co-complex (from UniProt P40460 1-691; P33895 1-451; Q04477 1-213; P40014 1-221; P39731 1-289; P40568 1-576; Q12143 1-216)	–	mean residence time on microtubules [2]: 9.8 s
Spc24/Spc25 V159D dimer (from UniProt Q04477 1-213; P40014 1-221) (complex)	4.2	–
free Spc24/Spc25 dimer (from UniProt Q04477 1-213; P40014 1-221) (complex)	4.1	–
